Data from the supplement of paper PMC9112550, “Optimization of the antimicrobial peptide Bac7 by deep mutational scanning” (BMC Biology, 2022).

system: Escherichia coli TOP10; assay: shrunken log2 fold change of peptide-encoding DNA abundance (4.5 h post-induction vs induction); higher = less antimicrobial activity (less host growth inhibition); settings: time post-induction: 4.5 h; library: site-saturation at positions 5, 18, 19, 20
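Note: peptides expressed intracellularly from a pBAD plasmid library in pooled LB shake-flask culture, induced with 0.3% L-arabinose, DNA abundance read by NGS, three biological replicates, DESeq2 with apeglm shrinkage.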

Row | Sequence | shrunken log2 fold change
1 | RRIRKRPPRLPRPRPRPIPIPRP | 0.136
2 | RRIRTRPPRLPRPRPRPFMAPRP | -0.0759
3 | RRIRERPPRLPRPRPRPVVRPRP | 0.0531
4 | RRIRLRPPRLPRPRPRPQEMPRP | -0.0408
5 | RRIRRRPPRLPRPRPRPWVCPRP | 0.0925
6 | RRIRTRPPRLPRPRPRPRKFPRP | 0.0711
7 | RRIRARPPRLPRPRPRPKPFPRP | 0.0753
8 | RRIRGRPPRLPRPRPRPNWCPRP | -0.0123
9 | RRIRSRPPRLPRPRPRPQGSPRP | -0.00511
10 | RRIRERPPRLPRPRPRPMKQPRP | -0.0573
11 | RRIRCRPPRLPRPRPRPPPHPRP | 1.3
12 | RRIRTRPPRLPRPRPRPTLGPRP | 0.0554
13 | RRIRHRPPRLPRPRPRPMFCPRP | 0.0621
14 | RRIRKRPPRLPRPRPRPCFGPRP | 0.194
15 | RRIRMRPPRLPRPRPRPEHMPRP | 0.147
16 | RRIRSRPPRLPRPRPRPDKPPRP | -0.266
17 | RRIRVRPPRLPRPRPRPKWPPRP | 0.4
18 | RRIRRRPPRLPRPRPRPYWWPRP | -0.0898
19 | RRIRNRPPRLPRPRPRPVWEPRP | 0.0809
20 | RRIRWRPPRLPRPRPRPKGRPRP | 0.0214
21 | RRIRKRPPRLPRPRPRPVTVPRP | -0.0834
22 | RRIRLRPPRLPRPRPRPRDKPRP | 0.133
23 | RRIRSRPPRLPRPRPRPFRKPRP | -0.176

Row | Sequence | shrunken log2 fold change
24 | RRIRERPPRLPRPRPRPKLGPRP | 0.12
25 | RRIRLRPPRLPRPRPRPYHMPRP | -0.146
26 | RRIRKRPPRLPRPRPRPSWAPRP | 0.186
27 | RRIRRRPPRLPRPRPRPFIAPRP | -0.253
28 | RRIRWRPPRLPRPRPRPYITPRP | -0.13
29 | RRIRSRPPRLPRPRPRPWSYPRP | 0.0308
30 | RRIRPRPPRLPRPRPRPFTMPRP | 1.43
31 | RRIRPRPPRLPRPRPRPIGRPRP | -0.0114
32 | RRIRPRPPRLPRPRPRPSEAPRP | -0.0726
33 | RRIRWRPPRLPRPRPRPGHLPRP | 0.0651
34 | RRIRFRPPRLPRPRPRPEGQPRP | 0.15
35 | RRIRARPPRLPRPRPRPNVEPRP | 0.327
36 | RRIRCRPPRLPRPRPRPWDCPRP | -0.469
37 | RRIRSRPPRLPRPRPRPVNQPRP | -0.155
38 | RRIRWRPPRLPRPRPRPAALPRP | 0.257
39 | RRIRWRPPRLPRPRPRPPVSPRP | 0.289
40 | RRIRDRPPRLPRPRPRPVMWPRP | 0.783
41 | RRIRWRPPRLPRPRPRPCTRPRP | -0.161
42 | RRIRWRPPRLPRPRPRPLVKPRP | 0.147
43 | RRIRPRPPRLPRPRPRPCFSPRP | -0.304
44 | RRIRPRPPRLPRPRPRPYVFPRP | -0.659
45 | RRIRYRPPRLPRPRPRPAPCPRP | -0.0799
46 | RRIRTRPPRLPRPRPRPSVIPRP | -0.268

Row | Sequence | shrunken log2 fold change
47 | RRIRERPPRLPRPRPRPIGHPRP | -0.244
48 | RRIRTRPPRLPRPRPRPKNKPRP | -0.525
49 | RRIRPRPPRLPRPRPRPMSKPRP | -0.276
50 | RRIRIRPPRLPRPRPRPRKIPRP | -0.413
51 | RRIRTRPPRLPRPRPRPHFYPRP | -0.224
52 | RRIRGRPPRLPRPRPRPRHSPRP | 0.242
53 | RRIRTRPPRLPRPRPRPYMVPRP | -1.93
54 | RRIRKRPPRLPRPRPRPYFMPRP | -0.501
55 | RRIRVRPPRLPRPRPRPVNDPRP | -0.201
56 | RRIRMRPPRLPRPRPRPDIQPRP | 0.118
57 | RRIRERPPRLPRPRPRPWDIPRP | -0.0155
58 | RRIRQRPPRLPRPRPRPFLLPRP | -0.165
59 | RRIRHRPPRLPRPRPRPHDHPRP | -1.24
60 | RRIRIRPPRLPRPRPRPRRVPRP | -0.0339
61 | RRIRWRPPRLPRPRPRPAREPRP | 0.138
62 | RRIRIRPPRLPRPRPRPTGPPRP | -0.0249
63 | RRIRTRPPRLPRPRPRPHDHPRP | -0.257
64 | RRIRVRPPRLPRPRPRPPRNPRP | 0.343
65 | RRIRRRPPRLPRPRPRPMNMPRP | 0.922
66 | RRIRQRPPRLPRPRPRPNFQPRP | -0.198
67 | RRIRNRPPRLPRPRPRPNAQPRP | -0.119
68 | RRIRYRPPRLPRPRPRPRGSPRP | -0.285
69 | RRIRCRPPRLPRPRPRPLAFPRP | -0.165

Row | Sequence | shrunken log2 fold change
70 | RRIRMRPPRLPRPRPRPARVPRP | 1.28
71 | RRIRGRPPRLPRPRPRPGSHPRP | 0.12
72 | RRIRWRPPRLPRPRPRPWQHPRP | -0.0883
73 | RRIRKRPPRLPRPRPRPIWVPRP | 0.00396
74 | RRIRDRPPRLPRPRPRPNHTPRP | -0.0643
75 | RRIRPRPPRLPRPRPRPYHHPRP | -0.655
76 | RRIRYRPPRLPRPRPRPNIIPRP | -1.01
77 | RRIRRRPPRLPRPRPRPHMMPRP | 0.176
78 | RRIRSRPPRLPRPRPRPFASPRP | 0.0202
79 | RRIRLRPPRLPRPRPRPFFCPRP | -0.0304
80 | RRIRNRPPRLPRPRPRPEQSPRP | 0.338
81 | RRIRERPPRLPRPRPRPYSCPRP | 0.0107
82 | RRIRKRPPRLPRPRPRPECKPRP | 0.506
83 | RRIRMRPPRLPRPRPRPSTSPRP | -0.0821
84 | RRIRIRPPRLPRPRPRPVVTPRP | -0.408
85 | RRIRMRPPRLPRPRPRPNWDPRP | 0.0485
86 | RRIRFRPPRLPRPRPRPRCLPRP | -0.124
87 | RRIRIRPPRLPRPRPRPSPAPRP | -0.11
88 | RRIRTRPPRLPRPRPRPVRVPRP | 0.229
89 | RRIRERPPRLPRPRPRPVDCPRP | 0.0769
90 | RRIRNRPPRLPRPRPRPWTDPRP | 0.0246
91 | RRIRRRPPRLPRPRPRPQVLPRP | 0.0646
